B1: ZNF263 (parent)
chain: FAHSSNLLRHQRIHTGERPYKCPE
B2: SPATS1 (parent)
chain: YPEQSKGFHKAGSMLPPVNFSIVP
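Further: lentivirally expressed fusions sorted by FACS into six bins by GFP to DsRed ratio, PSI derived from sequencing read proportions per bin multiplied by bin number.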

The variants in the first series derive from B1. As to the kind of experiment: protein stability index of a GFP-peptide fusion (GPS, HEK-293T) (PSI 1-6); higher = more stable. The conditions noted are these: c terminus: a fixed tail appended.
In the case of AAHSSNLLRHQRIHTGERPYKCPE, the protein stability index was determined as 3.8.

GAHSSNLLRHQRIHTGERPYKCPE: the protein stability index was determined as 4.33.

Turning to EAHSSNLLRHQRIHTGERPYKCPE, the protein stability index was 3.92.

As to CAHSSNLLRHQRIHTGERPYKCPE, the protein stability index stood at 2.36.

Consider DAHSSNLLRHQRIHTGERPYKCPE, for which the protein stability index was determined as 3.9.

Variants of B2 are the subject of a further series. The description is as above. The conditions noted are these: c terminus: a fixed tail appended.
Take YPEQSKGFHKAGSMLPPVNFSSVP: the protein stability index is 2.48.

As to YPEQSKGFHKAGSMLPPVNFSNVP, the protein stability index worked out at 2.31.

Take YPEQSKGFHKAGSMLPPVNFSLVP: the protein stability index is 2.34.

Turning to YPEQSKGFHKAGSMLPPVNFSEVP, the protein stability index turned out to be 2.33.

For the variant YPEQSKGFHKAGSMLPPVNFSAVP, the protein stability index was 2.22.

Turning to YPEQSKGFHKAGSMLPPVNFDIVP, the protein stability index amounted to 1.87.

With YPEQSKGFHKAGSMLPPVNFYIVP, the protein stability index came to 2.6.

Take YPEQSKGFHKAGSMLPPVNFTIVP: the protein stability index was found to be 2.52.

With YPEQSKGFHKAGSMLPPVNFAIVP, the protein stability index was 1.8.

On to YPEQSKGFHKAGSMLPPVNFNIVP, for which the protein stability index stood at 2.4.

On to YPEQSKGFHKAGSMLPPVNFHIVP, for which the protein stability index was determined as 1.49.

On to YPEQSKGFHKTGSMLPPVNFSIVP, for which the protein stability index was determined as 1.83.

Take YPEQSKGFHKKGSMLPPVNFSIVP: the protein stability index is 2.15.

Consider YPEQSKGFHKFGSMLPPVNFSIVP, for which the protein stability index was 2.1.

Take YPEQSKGFHKPGSMLPPVNFSIVP: the protein stability index was determined as 2.19.

For the variant YPEQSKGFHKGGSMLPPVNFSIVP, the protein stability index worked out at 1.98.

Take YPEQSKGFHKQGSMLPPVNFSIVP: the protein stability index stood at 2.17.

For YPEQSKGFHKSGSMLPPVNFSIVP, the protein stability index was 1.78.

In the case of YPEQSKGFHKYGSMLPPVNFSIVP, the protein stability index came out at 1.74.

Take YPEQSKGFHKAGSMLPPTNFSIVP: the protein stability index turned out to be 2.

YPEQSKGFHKAGSMLPPGNFSIVP: the protein stability index stood at 2.48.

For the variant YPEQSKGFHKAGSMLPPSNFSIVP, the protein stability index stood at 1.96.

As for YPEQSKGFHKAGSMLPPANFSIVP, the protein stability index amounted to 2.56.

Take YPEQSKGFHKAGSMLPPNNFSIVP: the protein stability index amounted to 2.4.

As to YPEQSKGFHLAGSMLPPVNFSIVP, the protein stability index was 2.88.

Regarding YPEQSKGFHSAGSMLPPVNFSIVP, the protein stability index was 1.91.

For YPEQSKGFHIAGSMLPPVNFSIVP, the protein stability index came out at 1.7.

Consider YPEQSKGFHDAGSMLPPVNFSIVP, for which the protein stability index stood at 2.54.

For the variant YPEQSKGFHYAGSMLPPVNFSIVP, the protein stability index turned out to be 2.15.

In the case of YPEQSKGFHMAGSMLPPVNFSIVP, the protein stability index was determined as 1.93.

With YPEQSKGFHFAGSMLPPVNFSIVP, the protein stability index turned out to be 1.57.

YPEQSKGFHPAGSMLPPVNFSIVP: the protein stability index amounted to 2.

For the variant YPEQSKGFHNAGSMLPPVNFSIVP, the protein stability index came to 2.

For the variant YPEQSKGFHCAGSMLPPVNFSIVP, the protein stability index was found to be 3.44.

As to YPEQSKGFHVAGSMLPPVNFSIVP, the protein stability index was 1.76.

For YPEQSKGFHWAGSMLPPVNFSIVP, the protein stability index is 3.61.

As to YPEQSKGFHKAGSMYPPVNFSIVP, the protein stability index was determined as 2.42.

Turning to YPEQSKGFHKAGSMKPPVNFSIVP, the protein stability index was determined as 1.72.

Consider YPEQSKGFHKAGSMNPPVNFSIVP, for which the protein stability index was determined as 2.02.

Turning to YPEQSKGFHKAGSMWPPVNFSIVP, the protein stability index was 1.47.

On to YPEQSKWFHKAGSMLPPVNFSIVP, for which the protein stability index stood at 1.7.

Take YPEQSKHFHKAGSMLPPVNFSIVP: the protein stability index came out at 1.43.

Take YPEQSKVFHKAGSMLPPVNFSIVP: the protein stability index is 1.86.

YPEQSKFFHKAGSMLPPVNFSIVP: the protein stability index was found to be 2.12.

Consider YPEQSKDFHKAGSMLPPVNFSIVP, for which the protein stability index amounted to 2.86.

With YPEQSKCFHKAGSMLPPVNFSIVP, the protein stability index was 1.94.

For the variant YPEQSKKFHKAGSMLPPVNFSIVP, the protein stability index was 2.39.

Take YPAQSKGFHKAGSMLPPVNFSIVP: the protein stability index amounted to 1.78.

For the variant YPVQSKGFHKAGSMLPPVNFSIVP, the protein stability index stood at 1.76.

In the case of YPLQSKGFHKAGSMLPPVNFSIVP, the protein stability index turned out to be 1.9.

YPSQSKGFHKAGSMLPPVNFSIVP: the protein stability index was 2.

Turning to YPKQSKGFHKAGSMLPPVNFSIVP, the protein stability index was 1.8.

As to YPEQSQGFHKAGSMLPPVNFSIVP, the protein stability index was 1.71.

Regarding YPEQSMGFHKAGSMLPPVNFSIVP, the protein stability index is 2.26.

Consider YPEQSSGFHKAGSMLPPVNFSIVP, for which the protein stability index was 2.56.

For the variant YPEQSYGFHKAGSMLPPVNFSIVP, the protein stability index was 1.93.

Consider YPEQSPGFHKAGSMLPPVNFSIVP, for which the protein stability index amounted to 2.17.

As to YPEQSGGFHKAGSMLPPVNFSIVP, the protein stability index is 2.09.

As to YPEQSAGFHKAGSMLPPVNFSIVP, the protein stability index came to 1.92.

Regarding YPEQSRGFHKAGSMLPPVNFSIVP, the protein stability index worked out at 1.71.

Turning to YPEQSLGFHKAGSMLPPVNFSIVP, the protein stability index was 1.75.

Take YPEQSFGFHKAGSMLPPVNFSIVP: the protein stability index is 2.1.

Consider YPEQSWGFHKAGSMLPPVNFSIVP, for which the protein stability index is 1.9.

As for YPEQSHGFHKAGSMLPPVNFSIVP, the protein stability index worked out at 1.71.

On to YPEQSKGFHKAGGMLPPVNFSIVP, for which the protein stability index turned out to be 1.85.

For the variant YPEQSKGFHKAGQMLPPVNFSIVP, the protein stability index was determined as 1.97.

In the case of YPEQSKGFHKAGTMLPPVNFSIVP, the protein stability index worked out at 1.7.

YPEQSKGFHKAGMMLPPVNFSIVP: the protein stability index stood at 1.69.

YPEQSKGFHKAGWMLPPVNFSIVP: the protein stability index is 2.1.

Consider YPEQSKGFHKAGYMLPPVNFSIVP, for which the protein stability index turned out to be 1.78.

As for YPEQSKGFHKAGDMLPPVNFSIVP, the protein stability index was 2.17.

Turning to YPEQSKGFHKAGVMLPPVNFSIVP, the protein stability index was determined as 1.67.

As to YPEQSKGFHKAGLMLPPVNFSIVP, the protein stability index amounted to 1.88.

For YPEQSKGFHKAGEMLPPVNFSIVP, the protein stability index was 2.24.

With YPEQSKGFHKAGSMLPPVNFSIVC, the protein stability index worked out at 1.65.

On to YPEQSKGFHKAGSMLPPVNFSIVA, for which the protein stability index was determined as 1.66.

In the case of YPEQSKGFHKAGSMLPPVNFSIVQ, the protein stability index came out at 1.75.

YPEQSKGFHKAGSMLPPVNFSIVS: the protein stability index came to 1.94.

In the case of YPEQSKGFHKAGSMLPPVNFSIVR, the protein stability index came to 1.82.

With YPEQSKGFHKAGSMLPPVNFSIVT, the protein stability index worked out at 3.33.

As to YPEQSKGFHKAGSMLPPVNFSIVK, the protein stability index was determined as 2.08.

Regarding YPEQSKGFHKAGSMLPPVNLSIVP, the protein stability index turned out to be 1.97.

On to YPEQSKGFHKAGSMLPPVNHSIVP, for which the protein stability index was found to be 2.19.

Regarding YPEQSKGFHKAGSMLPPVNASIVP, the protein stability index worked out at 2.26.

Turning to YPEQSKGFHKAGSMLPPVNQSIVP, the protein stability index is 2.47.

Turning to YPEQSKGFHKAGSMLPPVNISIVP, the protein stability index was 1.73.

Turning to YPEQSKGFHKAGSMLPPVNMSIVP, the protein stability index came to 1.97.

With YPEQSKGFHKAGSMLPPVNKSIVP, the protein stability index worked out at 2.19.

With YPEQSKGFHKAGSMLPPVNYSIVP, the protein stability index came to 2.03.

(Values after the supplement of paper PMC10567573.)
